The record followed here is publication PMC10397247.

Assay [1] has as its target T1, P4SC1.
T1 chain: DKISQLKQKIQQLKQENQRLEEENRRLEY
The assay can be described thus: two-hybrid library CCNG1.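 Note: natural log of median RNA to DNA barcode read ratio; higher means stronger binding.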

For assay [2], the target named is T1, P4SC1. Nature of the assay: two-hybrid library CCmax.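 Note: natural log of median RNA to DNA barcode read ratio; higher means stronger binding.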 Conditions: mean of both orientations.
A further assay concerns the target T2, P10bH1.
T2 chain: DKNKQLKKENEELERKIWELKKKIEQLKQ
Nature of the assay: two-hybrid library CCNG1.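 Note: natural log of median RNA to DNA barcode read ratio; higher means stronger binding.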

Another assay concerns the target T3, P11bH1.
T3 chain: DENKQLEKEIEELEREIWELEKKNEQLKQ
Nature of the assay: two-hybrid library CCNG1.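 Note: natural log of median RNA to DNA barcode read ratio; higher means stronger binding.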

The target of another assay is T4, P12bH1.
T4 chain: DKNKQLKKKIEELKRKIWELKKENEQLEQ
Nature of the assay: two-hybrid library CCNG1.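 Note: natural log of median RNA to DNA barcode read ratio; higher means stronger binding.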

A further assay has as its target T5, P1bH1.
T5 chain: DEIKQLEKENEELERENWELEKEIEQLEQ
Nature of the assay: two-hybrid library CCNG1.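 Note: natural log of median RNA to DNA barcode read ratio; higher means stronger binding.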

The target in a further assay is T6, P2bH1.
T6 chain: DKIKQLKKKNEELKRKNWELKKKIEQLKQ
The assay can be described thus: two-hybrid library CCNG1.

A further assay concerns the target T7, P3bH1.
T7 chain: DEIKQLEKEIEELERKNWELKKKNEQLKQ
Nature of the assay: two-hybrid library CCNG1.

In a further assay the target is T8, P4bH1.
T8 chain: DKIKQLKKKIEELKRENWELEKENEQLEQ
The assay can be described thus: two-hybrid library CCNG1.

The next assay addresses T9, P5bH1.
T9 chain: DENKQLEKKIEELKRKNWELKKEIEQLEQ
The assay can be described thus: two-hybrid library CCNG1.

The target in another assay is T10, P6bH1.
T10 chain: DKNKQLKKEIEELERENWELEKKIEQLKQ
Nature of the assay: two-hybrid library CCNG1.

Another assay has as its target T11, P7bH1.
T11 chain: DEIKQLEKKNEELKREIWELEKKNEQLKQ
The assay can be described thus: two-hybrid library CCNG1.

The target in another assay is T12, P8bH1.
T12 chain: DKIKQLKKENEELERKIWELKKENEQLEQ
Nature of the assay: two-hybrid library CCNG1.

The target of another assay is T13, P9bH1.
T13 chain: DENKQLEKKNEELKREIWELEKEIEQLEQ
The assay can be described thus: two-hybrid library CCNG1.

A further assay concerns the target T14, Core_ININ-es_KKEE.
T14 chain: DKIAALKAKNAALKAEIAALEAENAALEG
Nature of the assay: two-hybrid library CCmax. The following applies: mean of both orientations.

In the next assay the target is T15, Core_NIIN-es_KKKK.
T15 chain: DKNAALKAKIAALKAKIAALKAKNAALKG
Nature of the assay: two-hybrid library CCmax. Conditions: mean of both orientations.

Another assay deals with T16, Core_INNN-es_KKKK.
T16 chain: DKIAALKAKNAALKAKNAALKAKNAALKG
The assay can be described thus: two-hybrid library CCmax. The following applies: mean of both orientations.

Another assay addresses T17, Core_NIII-es_KKKK.
T17 chain: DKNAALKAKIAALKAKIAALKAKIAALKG
Nature of the assay: two-hybrid library CCmax. The following applies: mean of both orientations.

The next assay concerns the target T18, Core_NNIN-es_KKEE.
T18 chain: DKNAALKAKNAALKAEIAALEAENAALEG
The assay can be described thus: two-hybrid library CCmax. Conditions: mean of both orientations.

The target in a further assay is T19, Core_INNN-es_KKKE.
T19 chain: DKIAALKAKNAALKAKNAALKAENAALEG
The assay can be described thus: two-hybrid library CCmax. The following applies: mean of both orientations.

The target in a further assay is T20, Core_INNI-es_KKEK.
T20 chain: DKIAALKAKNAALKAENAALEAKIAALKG
Nature of the assay: two-hybrid library CCmax. The following applies: mean of both orientations.

In another assay the target is T21, Core_NNNN-es_KEKE.
T21 chain: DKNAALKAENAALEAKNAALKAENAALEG
The assay can be described thus: two-hybrid library CCmax. The following applies: mean of both orientations.

A further assay addresses T22, Core_INNI-es_KEKE.
T22 chain: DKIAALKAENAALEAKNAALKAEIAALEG
Nature of the assay: two-hybrid library CCmax. The following applies: mean of both orientations.

Another assay deals with T23, Core_INII-es_KEEE.
T23 chain: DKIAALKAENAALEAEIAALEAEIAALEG
The assay can be described thus: two-hybrid library CCmax. The following applies: mean of both orientations.

Another assay has as its target T24, Core_IINN-es_KEEK.
T24 chain: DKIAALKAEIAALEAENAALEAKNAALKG
Nature of the assay: two-hybrid library CCmax. The following applies: mean of both orientations.

For a further assay, the target named is T25, Core_INNN-es_KKEK.
T25 chain: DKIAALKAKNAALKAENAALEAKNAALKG
The assay can be described thus: two-hybrid library CCmax. The following applies: mean of both orientations.

Another assay deals with T26, 4H166-bH.
T26 chain: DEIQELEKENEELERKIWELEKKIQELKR
The assay can be described thus: two-hybrid library CCNG1.

Another assay addresses T27, 4H2143-bH.
T27 chain: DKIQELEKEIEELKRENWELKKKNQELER
The assay can be described thus: two-hybrid library CCNG1.

For the next assay, the target named is T28, 4H2162-bH.
T28 chain: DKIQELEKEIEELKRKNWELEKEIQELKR
Nature of the assay: two-hybrid library CCNG1.

The target in another assay is T29, 4H2233-bH.
T29 chain: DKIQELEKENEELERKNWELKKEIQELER
Nature of the assay: two-hybrid library CCNG1.

For another assay, the target named is T30, 4H2253-bH.
T30 chain: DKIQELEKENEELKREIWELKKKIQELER
Nature of the assay: two-hybrid library CCNG1.

The target in another assay is T31, 4H235-bH.
T31 chain: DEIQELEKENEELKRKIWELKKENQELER
Nature of the assay: two-hybrid library CCNG1.

Another assay has as its target T32, 4H2444-bH.
T32 chain: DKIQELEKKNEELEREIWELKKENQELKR
Nature of the assay: two-hybrid library CCNG1.

Another assay has as its target T33, 4H2518-bH.
T33 chain: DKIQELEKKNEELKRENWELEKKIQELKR
The assay can be described thus: two-hybrid library CCNG1.

The next assay deals with T34, 4H2585-bH.
T34 chain: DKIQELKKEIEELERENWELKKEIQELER
The assay can be described thus: two-hybrid library CCNG1.

A further assay concerns the target T35, 4H264-bH.
T35 chain: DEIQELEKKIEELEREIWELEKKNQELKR
Nature of the assay: two-hybrid library CCNG1.

The target in another assay is T36, 4H2760-bH.
T36 chain: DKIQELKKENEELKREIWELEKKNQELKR
Nature of the assay: two-hybrid library CCNG1.

For a further assay, the target named is T37, 4H2859-bH.
T37 chain: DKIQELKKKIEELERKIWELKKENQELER
The assay can be described thus: two-hybrid library CCNG1.

In the next assay the target is T38, 4H2931-bH.
T38 chain: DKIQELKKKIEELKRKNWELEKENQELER
The assay can be described thus: two-hybrid library CCNG1.

A further assay deals with T39, 4H3041-bH.
T39 chain: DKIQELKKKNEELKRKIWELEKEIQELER
Nature of the assay: two-hybrid library CCNG1.

The next assay deals with T40, 4H3297-bH.
T40 chain: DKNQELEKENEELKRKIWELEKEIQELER
The assay can be described thus: two-hybrid library CCNG1.

The next assay addresses T41, 4H3364-bH.
T41 chain: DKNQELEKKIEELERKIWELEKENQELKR
Nature of the assay: two-hybrid library CCNG1.

The target of the next assay is T42, 4H3381-bH.
T42 chain: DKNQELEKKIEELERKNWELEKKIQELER
The assay can be described thus: two-hybrid library CCNG1.

In the next assay the target is T43, 4H349-bH.
T43 chain: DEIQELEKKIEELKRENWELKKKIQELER
The assay can be described thus: two-hybrid library CCNG1.

The target of another assay is T44, 4H56-bH.
T44 chain: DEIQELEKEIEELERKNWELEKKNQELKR
The assay can be described thus: two-hybrid library CCNG1.

Another assay has as its target T45, 4H730-bH.
T45 chain: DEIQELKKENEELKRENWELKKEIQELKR
Nature of the assay: two-hybrid library CCNG1.

Another assay deals with T46, 4H796-bH.
T46 chain: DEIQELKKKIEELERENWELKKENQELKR
The assay can be described thus: two-hybrid library CCNG1.

The target of a further assay is T47, 4H932-bH.
T47 chain: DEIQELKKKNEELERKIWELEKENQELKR
The assay can be described thus: two-hybrid library CCNG1.

A further assay has as its target T48, 4H949-bH.
T48 chain: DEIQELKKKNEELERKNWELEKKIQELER
Nature of the assay: two-hybrid library CCNG1.

Another assay deals with T49, 4H967-bN.
T49 chain: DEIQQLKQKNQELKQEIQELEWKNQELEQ
The assay can be described thus: two-hybrid library CCNG1.

The target of the next assay is T50, Core_INII-es_KEKK.
T50 chain: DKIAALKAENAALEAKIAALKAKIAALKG
Nature of the assay: two-hybrid library CCmax. The following applies: mean of both orientations.

The next assay concerns the target T51, Core_IINN-es_KKKE.
T51 chain: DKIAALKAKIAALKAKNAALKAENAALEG
Nature of the assay: two-hybrid library CCmax. Conditions: mean of both orientations.

B1: P3SC1 (peptide)
chain: DEIQQLEEEISQLEYKNYALKAKNEELKR
In the case of B1, the figures for the interaction score with P4SC1 [1] and with P4SC1 [2] were 2.22 and 1.43, respectively.

B2: P10bH1 (peptide)
chain: DKNKQLKKENEELERKIWELKKKIEQLKQ
On to B2, for which the interaction score is 0.178 with P10bH1; 0.862 with P11bH1; -0.838 with P12bH1; 1.14 with P1bH1; -1.33 with P2bH1; 1.35 with P3bH1. Moreover, the interaction score with P4bH1 was -0.889; in the assay with P5bH1 it was -0.973; in the assay with P6bH1 it was 0.126; with P7bH1 it was 0.654; in the assay with P8bH1 it was -0.375; with P9bH1, 1.04.

B3: Core_ININ-es_EEKK (peptide)
chain: DEIAALEAENAALEAKIAALKAKNAALKG
Turning to B3, the interaction score with Core_ININ-es_KKEE is 2.03.

B4: Core_NIIN-es_EEEE (peptide)
chain: DENAALEAEIAALEAEIAALEAENAALEG
As to B4, in the assay with Core_NIIN-es_KKKK, the interaction score was 1.68.

B5: Core_INNN-es_EEEE (peptide)
chain: DEIAALEAENAALEAENAALEAENAALEG
The molecule B5 had an interaction score in the assay with Core_INNN-es_KKKK of 2.18.

B6: Core_NIII-es_EEEE (peptide)
chain: DENAALEAEIAALEAEIAALEAEIAALEG
As for B6, the interaction score in the assay with Core_NIII-es_KKKK turned out to be 2.01.

B7: Core_NNIN-es_EEKK (peptide)
chain: DENAALEAENAALEAKIAALKAKNAALKG
B7 came in with an interaction score with Core_NNIN-es_KKEE of 1.83.

B8: Core_INNN-es_EEEK (peptide)
chain: DEIAALEAENAALEAENAALEAKNAALKG
In the assay with Core_INNN-es_KKKE, B8 displayed an interaction score of 2.01.

B9: Core_INNI-es_EEKE (peptide)
chain: DEIAALEAENAALEAKNAALKAEIAALEG
B9 showed an interaction score in the assay with Core_INNI-es_KKEK of 2.03.

B10: Core_NNNN-es_EKEK (peptide)
chain: DENAALEAKNAALKAENAALEAKNAALKG
As to B10, the interaction score with Core_NNNN-es_KEKE was -0.668.

B11: Core_INNI-es_EKEK (peptide)
chain: DEIAALEAKNAALKAENAALEAKIAALKG
In turn, B11 yielded an interaction score with Core_INNI-es_KEKE of 2.27.

B12: Core_INII-es_EKKK (peptide)
chain: DEIAALEAKNAALKAKIAALKAKIAALKG
In the assay with Core_INII-es_KEEE, B12 registered an interaction score of 2.08.

B13: Core_IINN-es_EKKE (peptide)
chain: DEIAALEAKIAALKAKNAALKAENAALEG
In the assay with Core_IINN-es_KEEK, B13 had an interaction score of 1.87.

B14: Core_INNN-es_EEKE (peptide)
chain: DEIAALEAENAALEAKNAALKAENAALEG
In turn, B14 gave an interaction score with Core_INNN-es_KKEK of 1.84.

B15: 4H166-bH (peptide)
chain: DEIQELEKENEELERKIWELEKKIQELKR
With B15, the interaction score was 0.0371 with 4H166-bH; 0.23 with 4H2143-bH; 1.49 with 4H2162-bH; 0.81 with 4H2233-bH; 1.03 in the assay with 4H2253-bH; -0.624 in the assay with 4H235-bH. Besides, the interaction score worked out at 0.192 with 4H2444-bH; 1.54 in the assay with 4H2518-bH; 0.621 in the assay with 4H2585-bH; 0.0745 with 4H264-bH; 0.896 with 4H2760-bH; 1.65 in the assay with 4H2859-bH. Moreover, the interaction score is 1.25 in the assay with 4H2931-bH; 1.58 with 4H3041-bH; 1.62 with 4H3297-bH; -1.32 with 4H3364-bH; 0.522 in the assay with 4H3381-bH; 0.968 in the assay with 4H349-bH. Moreover, the interaction score was -1.05 with 4H56-bH; 0.00471 with 4H730-bH; 0.588 with 4H796-bH; 0.193 in the assay with 4H932-bH; 0.814 with 4H949-bH; -0.508 with 4H967-bN.

B16: Core_INII-es_EKEE (peptide)
chain: DEIAALEAKNAALKAEIAALEAEIAALEG
Consider B16, for which, in the assay with Core_INII-es_KEKK, the interaction score stood at 1.83.

B17: Core_IINN-es_EEEK (peptide)
chain: DEIAALEAEIAALEAENAALEAKNAALKG
The molecule B17 gave an interaction score with Core_IINN-es_KKKE of 2.03.
